{"source": "paper PMC4414373", "about": "“Relevance of glycosylation of S-layer proteins for cell surface properties” (Acta Biomaterialia, 2015)", "proteins": {"B1": {"name": "recombinant S-layer protein rSgsE(131-903), 130 amino acid N-terminal truncation of SgsE (domain or fragment, UniProt Q8VTF1 131-903, looked up)", "chain": "ATKLDKMRQELKAAVDAKDLKKAEELYHKISYELKTRTVILDRVYGQSTRELLRSTFKADAQALRDSLIYDITVAMKAREAQDAVKAGNLDKAKAALDQVNQYVSKVTDAFKAELQKAAQDAKAAYEAALPPKVESVTAVNAKTLEIKFNKAVDAATVIDNKGTSDTSDDVVKATAITLKAIDDQVPVSTVKASLSDDKKTLKLVVDGAQFFTKRYVVDIKNVKTLDGKDVPAYTTTIDTTDSVRPSVLSFSYADNGLTLKVKFSEPLASVGTVKLYDGTTEISVSPKFTAGDDEMTINLASSSVPVNKDLTLKIFGAVDYNGNVINPNPAELTVKKTTVDITKPVVQSIEAVNTKTVKVTFSEKLLSAPTIKIGGQTASVSVDSTGLVYTATLASALSKGVYAVEVSDYKDLAGNSGDAYTKVVQLKADNTAPKFVSSQVVKINGVEHLVLTFDEEVTTGSNITVVQSSDKYIDENNVLKAVGADLKTTSDNFKLYLPTDGKSKSVALNISSLPKGTYTVTLPNGLVSDLADNPYAERKQITFVRGSDSLTTKPALDKDYDSNGVKADNNNELVFAFTQNLDASALNLSNFNINGLTVTKAVFDGDTKHIRVTLAPGANTWTGTHVITISNIKNTSGLVMDTVTVNEYMKENVAPTFTATLTSADVIRVDFSEPVANATISRALSANNFIVKVDGNVVTVSNVYEDNNATNLVQGSKGYKTVYLKLQSPVTDLSKPITLSATDIVDVNQTGAITDNNVVGNNVSATVVNVAK", "notes": "S-layer protein SgsE of Geobacillus stearothermophilus NRS 2004/3a, residues 131-903; non-glycosylated; calculated molecular weight 82,800 Da; also called recombinantly produced non-glycosylated form of SgsE; source: E. coli BL21 Star (DE3), purified"}}, "molecular_target": "the molecule itself", "assay": "atomic force microscopy; S-layer (glyco)protein at 50 ug/mL recrystallized on gold-coated SPR and QCM-D sensor surfaces; lattice imaged in contact mode in a liquid cell under 100 mM NaCl", "data": [{"protein": "B1", "values": [{"measurement": "binding result", "result": "binds"}]}]}
